Laboratory results from patent publication US20190169313A1.

Target: D-dimer
Assay: detection of D-dimer; format not described

titer: 0.6 µg/mL
Substance: mouse monoclonal antibody AB424 directed to GGEL (Abcam, catalog number AB424)
